Values belong to the binder of their own block, whether it stands above or below them.
Columns and labels:
[1] = target: T1, recombinant human domain 1-3His6 of the cation-independent mannose-6-phosphate receptor (human, UniProt P11717 41-467); test: BLI at pH 7.4, 2nd of 2 repeats; BLI, biotinylated hDom1-3His6 on streptavidin tips, pH 7.4, experiment 2
T1 construct: Biotinylated (NHS-PEG4-biotin) for BLI; Glycosylated; also called hDom1-3His6; hCI-M6PRD1-D3

[2] = target: T2, human cation-independent mannose-6-phosphate receptor, native, on cells (human, UniProt P11717 41-2491); test: flow cytometry on HepG2 cells: FLAG3-tagged VHH 30 min on ice, M2 anti-Flag mAb, PE anti-mouse F(ab')2 [upper graph]
T2 construct: whole, on cells; also called native CI-M6PR; cell-surface hCI-M6PR
Text: (§1) Synthetic DNA fragments encoding VHHs were ordered (IDT, Leuven, Belgium) and subcloned into an E. coli expression vector under control of an IPTG-inducible lac promoter, in frame with N-terminal PelB signal peptide (which directs the recombinant proteins to the periplasmic compartment) and C-terminal FLAG3 and His6 tags. […] VHH proteins were purified from these clones by means of IMAC chromatography followed by desalting according to well established procedures¹⁰⁶. Cells used herein were recovered using cell dissociation non-enzymatic solution (Sigma Aldrich, cat. #C5914-100ML) and resuspended to a final concentration of 1,000,000 cells/mL in FACS buffer. Cells were incubated with different concentrations of purified FLAG3-tagged VHHs for 30 minutes on ice with shaking, followed by washing and incubation with mouse M2 anti-Flag mAb (Sigma Aldrich, cat. #F-1804) in FACS buffer for 30 min on ice with shaking, followed again by washing. […] Flow cytometry and analysis were done on an Attune NxT Flow Cytometer (Thermo Fisher Scientific).
(§2) Moreover, cross-reactivity to mouse CI-M6PR was analyzed, in view of the amino acid homology between mouse and human being overall about 80% identity, but for domain 1-3 of CI-M6PR just about 75% identity.

[3] = target: T1, recombinant human domain 1-3His6 of the …; test: BLI, dissoc pH 6, mean of local fits
Protocol: (§3) FIGS. 58 & 59. […] BLI was performed on an Octet Red96 (FortéBio) instrument in kinetics buffer (0.2 M Na₂HPO₄, 0.1 M Na⁺ citrate, 0.01% bovine serum albumin, 0.002% Tween-20). Biotinylated human domain₁₋₃His₆ was immobilized on Streptavidin SA biosensors (Sartorius) to a signal of 0.6 nm. […] Between assays, biosensors were regenerated by three times 10 s exposure to regeneration buffer (10 mM glycine pH 3). The degree of association and dissociation was measured in δ nm over time (s).
(§4) After loading, the tips were incubated with VHHs serially diluted in pH 7.4 kinetic buffer during the association phase and dissociation was performed at pH 7.4, pH 6.5, pH 6.0, pH 5.5 and pH 5.0. All biosensor tips were then regenerated before analysis of the subsequent VHH. Table 13 summarizes the kinetic parameters retrieved after processing and curve fitting of the BLI measurements. When both association and dissociation were performed at pH 7.4, a global fit was performed according to the 1:1 binding model of which the resulting affinity constants (KD), association (kₒₙ) and dissociation rate constants (koff) are shown. For measurements with association at pH 7.4 and dissociation at pH 6.5, 6.0, 5.5 and 5.0, the depicted dissociation rate constants are an average of the parameters determined by local curve fitting of the dissociation of 200, 100 and 50 nM VHH.

[4] = target: T1, recombinant human domain 1-3His6 of the …; test: BLI, dissoc pH 5.5, mean of local fits
Protocol: as §3, §4

[5] = target: T1, recombinant human domain 1-3His6 of the …; test: BLI, dissoc pH 5, mean of local fits
Protocol: as §3, §4

[6] = target: T1, recombinant human domain 1-3His6 of the …; test: BLI, global 1:1 fit, pH 7.4
Protocol: as §3, §4

[7] = target: T1, recombinant human domain 1-3His6 of the …; test: BLI exp 2, dissoc pH not printed (between 7 and 6, presumably 6.5)
[8] = target: T1, recombinant human domain 1-3His6 of the …; test: BLI exp 2, dissoc pH not printed (between 7 and 6, presumably 6.5); pH not given; row between pH 7 and pH 6 (6.5 in the VHH1, VHH7 and VHH8 blocks)
[9] = target: T3, mouse cation-independent mannose-6-phosphate receptor on cells (mouse, UniProt Q07113 36-2483); test: flow cytometry on fixed/permeabilised mouse bEND3 cells (sheet: Binding FACS in bEND3 (Fixed/Permeabilized); legend: internalisation detected upon permeabilisation) [upper graph]
T3 construct: whole, on cells; also called mouse CI-M6PR of bEND3 cells; mCI-M6PR
T3 sequence (Q07113 36-2483): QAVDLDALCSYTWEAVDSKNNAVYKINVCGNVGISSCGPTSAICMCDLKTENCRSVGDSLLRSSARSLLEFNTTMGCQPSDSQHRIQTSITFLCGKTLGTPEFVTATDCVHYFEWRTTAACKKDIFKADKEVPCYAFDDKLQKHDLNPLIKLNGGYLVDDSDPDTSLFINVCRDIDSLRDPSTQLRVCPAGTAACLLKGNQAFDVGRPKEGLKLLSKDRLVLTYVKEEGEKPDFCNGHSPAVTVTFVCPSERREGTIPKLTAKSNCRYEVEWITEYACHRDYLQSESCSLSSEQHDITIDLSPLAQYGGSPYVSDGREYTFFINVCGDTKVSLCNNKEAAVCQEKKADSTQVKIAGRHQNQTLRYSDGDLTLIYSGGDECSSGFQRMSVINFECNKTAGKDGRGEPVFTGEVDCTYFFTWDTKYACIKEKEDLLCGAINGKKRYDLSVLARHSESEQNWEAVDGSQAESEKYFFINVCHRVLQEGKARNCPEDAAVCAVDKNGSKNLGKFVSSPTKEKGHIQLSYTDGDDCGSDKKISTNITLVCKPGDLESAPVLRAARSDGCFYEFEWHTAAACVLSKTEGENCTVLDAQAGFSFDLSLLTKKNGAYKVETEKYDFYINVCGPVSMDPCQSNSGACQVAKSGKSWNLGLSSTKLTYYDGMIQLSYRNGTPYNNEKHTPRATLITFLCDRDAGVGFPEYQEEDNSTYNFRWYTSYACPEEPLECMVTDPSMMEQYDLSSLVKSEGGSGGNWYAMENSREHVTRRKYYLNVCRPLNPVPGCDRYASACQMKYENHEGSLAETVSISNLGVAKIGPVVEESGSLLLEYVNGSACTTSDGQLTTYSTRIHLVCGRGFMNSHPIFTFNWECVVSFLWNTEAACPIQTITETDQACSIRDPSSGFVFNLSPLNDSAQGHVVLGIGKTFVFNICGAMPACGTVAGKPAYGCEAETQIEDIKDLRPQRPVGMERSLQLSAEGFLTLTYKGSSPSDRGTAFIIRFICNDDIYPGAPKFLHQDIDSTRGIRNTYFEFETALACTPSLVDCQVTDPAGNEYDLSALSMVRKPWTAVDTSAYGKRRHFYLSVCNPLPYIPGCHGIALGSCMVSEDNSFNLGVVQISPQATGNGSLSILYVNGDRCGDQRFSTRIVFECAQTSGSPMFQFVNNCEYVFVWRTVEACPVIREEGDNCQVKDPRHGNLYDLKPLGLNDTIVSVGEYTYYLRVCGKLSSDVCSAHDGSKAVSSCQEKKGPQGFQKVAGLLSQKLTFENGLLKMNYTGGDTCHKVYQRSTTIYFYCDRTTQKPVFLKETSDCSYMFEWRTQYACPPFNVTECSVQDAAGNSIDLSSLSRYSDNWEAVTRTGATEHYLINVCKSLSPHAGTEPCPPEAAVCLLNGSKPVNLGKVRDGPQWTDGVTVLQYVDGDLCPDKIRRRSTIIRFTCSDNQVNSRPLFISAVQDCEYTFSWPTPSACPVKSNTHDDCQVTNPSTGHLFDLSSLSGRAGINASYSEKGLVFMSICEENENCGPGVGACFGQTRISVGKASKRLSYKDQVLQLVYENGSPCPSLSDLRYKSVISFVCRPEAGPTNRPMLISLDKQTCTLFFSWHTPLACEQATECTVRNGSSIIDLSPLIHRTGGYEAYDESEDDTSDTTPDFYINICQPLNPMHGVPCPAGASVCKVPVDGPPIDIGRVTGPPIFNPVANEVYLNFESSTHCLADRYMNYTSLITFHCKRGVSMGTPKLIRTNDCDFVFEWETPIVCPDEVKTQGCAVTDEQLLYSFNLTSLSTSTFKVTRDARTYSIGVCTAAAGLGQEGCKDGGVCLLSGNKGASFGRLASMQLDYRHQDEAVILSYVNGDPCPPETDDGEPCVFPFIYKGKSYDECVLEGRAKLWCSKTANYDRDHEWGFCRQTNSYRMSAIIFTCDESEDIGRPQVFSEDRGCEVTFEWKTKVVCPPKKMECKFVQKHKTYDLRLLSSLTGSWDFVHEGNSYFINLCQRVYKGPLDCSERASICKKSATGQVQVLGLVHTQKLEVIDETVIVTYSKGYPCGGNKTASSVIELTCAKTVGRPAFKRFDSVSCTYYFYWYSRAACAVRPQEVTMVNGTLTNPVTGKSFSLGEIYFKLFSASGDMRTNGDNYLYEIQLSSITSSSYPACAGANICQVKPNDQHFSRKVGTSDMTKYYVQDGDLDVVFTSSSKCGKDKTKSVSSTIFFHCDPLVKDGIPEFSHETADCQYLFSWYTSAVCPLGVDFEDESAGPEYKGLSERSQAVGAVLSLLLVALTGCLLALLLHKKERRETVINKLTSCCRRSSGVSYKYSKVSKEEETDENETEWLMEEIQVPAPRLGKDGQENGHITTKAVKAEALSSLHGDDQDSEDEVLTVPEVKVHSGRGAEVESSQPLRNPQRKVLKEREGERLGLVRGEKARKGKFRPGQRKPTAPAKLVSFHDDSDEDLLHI
Text: as §1

[10] = target: T3, mouse cation-independent …; test: flow cytometry, FLAG3-His6 VHH on mouse bEND3 cells
Text: as §1, §2

EC50 (read off the curve) [2]: ~2 nM
B2: anti-CI-M6PR VHH8 (VHH)
VHH: QVQLQESGGGLVQAGGSLRLSCEASGRTFNTYNWGWFRQAPGKEREFVAAIRWSSSKTSYADSVKGRFTISRDNAKNTIYLQMNSLKPEDTAVYYCAASIVDFTTNPSHFGSWGQGTQVTVSS
notes: His6-tagged (Pichia pastoris)

koff [3]: 0.0051 s⁻¹
koff [4]: 0.0063 s⁻¹
koff [5]: 0.0083 s⁻¹
Kd [6]: 4.9 nM
koff [6]: 0.0025 s⁻¹
kon [6]: 510000 M⁻¹ s⁻¹
B3: anti-CI-M6PR VHH 1H11 (VHH)
VHH: QVQLQESGGGLVQPGGSLRLSCAASGIIFSDNRMDWYRQAPGKQREWVATLASYGWKTYADSVKDRFTISRDNAKNTVNLYMNSLQPEDTAVYYCNSGQYWGQGTQVTVSS
notes: made in E. coli WK6, His-tag purified

The next lines start with the binder.

B1: anti-CI-M6PR VHH4 (VHH)
VHH: QVQLQESGGGLVQAGGSLRLSCAASGRTFSNYVMGWFRQAPGKEREFVGSISQGGKMTYYPDSVKGRFTISRDNAKNTMYLQMDGLKPEDTAVYYCAVSRGYPMVRVSEVDYWGQGTQVTVSS
notes: His6-tagged; made in Pichia pastoris
Kd [1]: 2.34 nM
kon [1]: 571000 M⁻¹ s⁻¹

B4: anti-CI-M6PR VHH5 (VHH)
VHH: QVQLQESGGGLVQAGGSLKLSCAAAGRTFSRLAMGWFRQAPGKEREFVAAISENGDSIHYSDSVKGRFAVSRDNAKNTVYLQMNSLKPEDTAIYYCAADRAAYYCSGSGCYPSRAPAAASYDYWGQGTQVTVSS
notes: His6-tagged; made in Pichia pastoris, later also in E. coli WK6
koff [7]: 0.00017 s⁻¹
kon [8]: 1.3e+06 M⁻¹ s⁻¹

B5: anti-CI-M6PR VHH7 (VHH)
VHH: QVQLQESGGGLVQPGGSLRLSCAASGIIFSDNRMDWYRQAPGKQREWVATLASYGWKTYADSVKGRFTISRDNTKNTVYLRMNSLKPEDTAVYYCKASSPVLNDIWGQGTQVTVSS
notes: His6-tagged (Pichia pastoris)
EC50 (read off the curve) [9]: ~50 nM
EC50 [10]: ~8.5 nM

Source: patent US20250263490A1 (VIB VZW, published 2025)
